# According to publication PMC10110952:
# Legend:
# [1] = molecular target: streptokinase (Streptococcus pyogenes) (UniProt P10520); assay: binding saturation; settings: cited from earlier work
# [2] = molecular target: PAM, plasminogen-binding group A Streptococcus (GAS) M-protein (S. pyogenes) (UniProt P49054); assay: SPR; PAM amine-coupled to a CM-5 chip (250 RU); hPg variants injected at 0.175-20 nM (up to 800 nM hPg [D219N]), multicycle kinetics, 180 s association, 300 s dissociation; HBS-EP+ (10 mM Na-Hepes/150 mM NaCl, 3 mM EDTA/0.05% polysorbate-20, pH 7.4), 25°C, Biacore X100; 1:1 Langmuir model
# [3] = molecular target: PAM, plasminogen-binding group A Streptococcus (GAS) M-protein (S. pyogenes) (UniProt P49054)
# [4] = molecular target: hPg [D^139,413,518N] (human); assay: SPR; each hPg variant amine-coupled to a CM-5 chip (~1200 RU); SK injected at 0.625-100 nM, multicycle kinetics, 90 s association, 120 s dissociation; HBS-EP+/50 μM NPGB, 25°C, Biacore X100; 1:1 Langmuir model
# hPg [D^139N] (human) = assay: as above
# hPg [D^219N] (human) = assay: as above
# hPg [D^413N] (human) = assay: as above
# hPg [D^518N] (human) = assay: as above
# hPg [K^708A] (human) = assay: as above
# [5] = molecular target: wild-type (WT) Glu^1-hPg (human plasminogen) (human); assay: as above
# Sequence of UniProt P49054 (P49054 30-384): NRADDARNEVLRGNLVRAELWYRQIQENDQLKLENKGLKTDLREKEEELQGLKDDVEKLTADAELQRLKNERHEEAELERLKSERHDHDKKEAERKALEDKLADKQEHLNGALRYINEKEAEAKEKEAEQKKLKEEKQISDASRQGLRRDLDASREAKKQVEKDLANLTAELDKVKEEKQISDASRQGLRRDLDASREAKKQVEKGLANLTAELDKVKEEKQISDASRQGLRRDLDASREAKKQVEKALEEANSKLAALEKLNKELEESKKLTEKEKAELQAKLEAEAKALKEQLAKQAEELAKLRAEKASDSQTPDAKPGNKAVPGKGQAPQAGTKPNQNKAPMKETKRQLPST
# Sequence of UniProt P10520 (P10520 27-440): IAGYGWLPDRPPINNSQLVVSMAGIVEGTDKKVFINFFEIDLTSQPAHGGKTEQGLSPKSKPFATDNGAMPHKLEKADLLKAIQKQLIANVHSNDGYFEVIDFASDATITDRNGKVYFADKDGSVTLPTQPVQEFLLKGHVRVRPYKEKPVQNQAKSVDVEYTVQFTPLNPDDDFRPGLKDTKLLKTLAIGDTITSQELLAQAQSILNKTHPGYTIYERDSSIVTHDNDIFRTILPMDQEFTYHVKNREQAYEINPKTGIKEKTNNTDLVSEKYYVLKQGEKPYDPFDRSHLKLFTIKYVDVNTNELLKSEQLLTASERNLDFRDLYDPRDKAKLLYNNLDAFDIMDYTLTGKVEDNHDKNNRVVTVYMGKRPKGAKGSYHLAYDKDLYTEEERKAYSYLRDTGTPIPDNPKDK
substance,measurement,setting,value
Glu1-plasminogen (from UniProt P00747),Kd,[1],500 pM
"hPg [D^139,413,518N] (natural protein)",Kd,[2],700 pM
same,koff,[2],0.0017 s⁻¹
same,kon,[2],2.51e+06 M⁻¹ s⁻¹
hPg [D^139N] (natural protein),"rate of SK-mediated activation of hPg to hPm (S2251 hydrolysis), 250 nM PAM against 0 nM PAM",[3],4 fold
same,Kd,[2],4000 pM
same,koff,[2],0.0016 s⁻¹
same,kon,[2],410000 M⁻¹ s⁻¹
hPg [D^413N] (natural protein),Kd,[2],700 pM
same,koff,[2],0.00094 s⁻¹
same,kon,[2],1.34e+06 M⁻¹ s⁻¹
hPg [D^518N] (natural protein),Kd,[2],6700 pM
same,koff,[2],0.0024 s⁻¹
same,kon,[2],360000 M⁻¹ s⁻¹
hPg [K^708A] (natural protein),Kd,[2],1200 pM
same,koff,[2],0.0012 s⁻¹
same,kon,[2],970000 M⁻¹ s⁻¹
mini-plasminogen mini-hPg (lacking K1-K4) (from UniProt P00747),Kd,[1],500 pM
streptokinase (SK) (natural protein),Kd,[4],2100 pM
same,koff,[4],0.000449 s⁻¹
same,kon,[4],206000 M⁻¹ s⁻¹
same,Kd,hPg [D^139N] (human),280 pM
same,koff,hPg [D^139N] (human),0.000302 s⁻¹
same,kon,hPg [D^139N] (human),1.13e+06 M⁻¹ s⁻¹
same,Kd,hPg [D^219N] (human),300 pM
same,koff,hPg [D^219N] (human),0.000466 s⁻¹
same,kon,hPg [D^219N] (human),1.55e+06 M⁻¹ s⁻¹
same,Kd,hPg [D^413N] (human),260 pM
same,koff,hPg [D^413N] (human),0.000302 s⁻¹
same,kon,hPg [D^413N] (human),1.22e+06 M⁻¹ s⁻¹
same,Kd,hPg [D^518N] (human),270 pM
same,koff,hPg [D^518N] (human),0.00034 s⁻¹
same,kon,hPg [D^518N] (human),1.29e+06 M⁻¹ s⁻¹
same,Kd,hPg [K^708A] (human),210 pM
same,koff,hPg [K^708A] (human),0.000282 s⁻¹
same,kon,hPg [K^708A] (human),1.36e+06 M⁻¹ s⁻¹
same,Kd,[5],290 pM
same,koff,[5],0.000405 s⁻¹
same,kon,[5],1.39e+06 M⁻¹ s⁻¹
wild-type (WT) Glu^1-hPg (human plasminogen) (natural protein),"rate of SK-mediated activation of hPg to hPm (S2251 hydrolysis), 250 nM PAM against 0 nM PAM",[3],4 fold
same,Kd,[2],5400 pM
same,koff,[2],0.0013 s⁻¹
same,kon,[2],240000 M⁻¹ s⁻¹
